B1: TPR t1 (parent)
chain: GACCAAUCUGCCCUCAGAGCUCGAGAACAUCUUCGGAUGCAGAGGAGGCAGGCUUCGGUGGCGCGAUAGCGCCAACGUCCUCAACCUCCAAUGCAUCCCACCACAUGAUGAUGCCUGAAGAGCCUUGGUUUUUUG

Variants of: B1
Test: polymerase ribozyme fitness, log enrichment relative to wild type (log ratio); higher = more active; in vitro selection for triplet polymerase activity
Summary of the method: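 Mutant libraries of both subunits of a heterodimeric triplet polymerase ribozyme were PCR-built, transcribed, and selected once in triplicate, with frozen incubation at −7 °C and capture of gel-excised extended constructs on streptavidin beads before RT-PCR. Illumina sequencing of input and output libraries was filtered to genotypes with ≥10 input reads and ≥1 read per output. Fitness is the logarithm of genotype enrichment over wild-type enrichment, using inverse-variance-weighted replicate averages. The logarithm is base 2.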

Row | Variant | polymerase ribozyme fitness (log ratio)
1 | C8A G117U A119U C123U | -0.478
2 | C8G C12G U30C C53G C114U | -4.29
3 | C8G A18U U21A C79A C123G | -3.84
4 | C8U G60C | 0.253
5 | C8U G61U A84C G120U | 1.93
6 | C8U U55G G113C | -1.85
7 | C8G C56A C123A | 1.29
8 | C8G U14G G36U C62U C80U G120A | 0.635
9 | C8U C72G | 0.517
10 | C8G G44A U92A C97U | -2.59
11 | C8G G117C C124A | -0.905
12 | U9A A16U G63A U129C | -1.11
13 | C8U G44A C56A | -0.314
14 | C8U C12A G19U U59C G120A | -1.69
15 | C8U A26U A83C G127C U133A | -5.14
16 | C8G C98G | -5.23
17 | C8U C12U C49U U116A G120U C123U U126C | -4.26
18 | C8A C115A U125G | 1.5
19 | C8A C72U U87A C99U | -2.56
20 | C8G G57A G117A A119U G135U | -2.27
21 | C8A C86G C102U C104U G110A | -4.28
22 | C8G G45C G48A U54G | 0.0312
23 | C8U A29G U112A | -0.107
24 | C8U C13G G110U | -1.09

Row | Variant | polymerase ribozyme fitness (log ratio)
25 | C8U A18C A41U A50G C72G C101U | -3.51
26 | C8G C73G G128A | -1.19
27 | C8U C22A C62U | -4.04
28 | C8G C40G G71U U81G C82U | -0.811
29 | C8U C62U U87A A121U | 1.89
30 | C8G G61C C72A C97U U130A | 0.551
31 | C8A G69U | 0.656
32 | C8G C22A C53U C89A C114U G117A G135A | -3.7
33 | C8G G35A | -2.23
34 | C8U C20U A37U A43U C72U A74U | -2.39
35 | C8G G39A | -0.708
36 | C8U G52U U54G G63A A118G | -3.26
37 | C8U G39U C49G G63A U78A G128A | -3.94
38 | C8U A41C C73A G122A | 0.223
39 | C8A U9G | -0.0103
40 | C8G C20U A46U G52C | -3.42
41 | C8G C13A | 0.587
42 | C8G C13G | 0.865
43 | C8U C28U U116A | -3.54
44 | C8A G48A C89U C124U | 1.22
45 | C8G C12A C28G A29G G48U A68U C114A U125G | -6.52
46 | C8G A27U A46C G69U U78A C114U | -4.5
47 | C8G U106G C114U | -1.28
48 | C8A G39A | -0.0887

Row | Variant | polymerase ribozyme fitness (log ratio)
49 | C8G C34G C88U U112C G113A | -6.08
50 | C8G C85A A121U | 1.35
51 | C8A U54G A111U U116G A119U U130G | -7.62
52 | C8U U14A C72A C73U | -2.99
53 | C8G G35C A50U A118U | -5.01
54 | C8U C76G U96A G120U U129C | 0.287
55 | C8G G10U G36U | -0.687
56 | C8U C53A C73G | -0.563
57 | C8G C20G C72U A95G | -3.64
58 | C8G C40A C70G C114A | -5.85
59 | C8U C13A A37C G61U U87G C102U | -1.74
60 | C8G U14G G61C A66C | -2.35
61 | C8U C34U G35A C101A C114U | -6.15
62 | C8U A50U C104U C123U | 1.14
63 | C8A G45C G58A C97G U106A | -3.12
64 | C8G C11U C40U A90G C97U U129G | -1.14
65 | C8U G65A | -4.53
66 | C8G C53G C56U G93C | 0.798
67 | C8G C28A C72G | -3.76
68 | C8G G44C A84C C115U | -1.3
69 | C8U A18U G57A C64U C94U | -4.97
70 | C8G G10A | 0.258
71 | C8G C62A C94A G120U | 0.318
72 | C8G C40A | -1.11

Row | Variant | polymerase ribozyme fitness (log ratio)
73 | U9A A29U G63A C104A | -3.02
74 | C8A G51C C53A C88A C114A | -5.74
75 | C8G G47U | 0.0211
76 | C8G C53U C89A | -1.28
77 | C8A G52A | -0.0157
78 | C8G A75G C88A C124U | 1.57
79 | C8G C12A G39A G61U A111U U130A | -2.24
80 | C8U C72G U96G | -1.03
81 | C8A G47U U78G U81G | -4.17
82 | C8G A50C C72A G93A | -0.538
83 | C8U G58A G93U G117U G128C | -5.28
84 | C8A U112C | 1.3
85 | U9A A26U | -1.79
86 | C8G C79G C80A | -5.06
87 | C8G G63A G127C | -1.12
88 | C8A G36U C82A | -0.55
89 | C8G U14A G58C | -0.0186
90 | C8G A43U A95U U109A C123G | -5.23
91 | U9A A18C G44A C70U G93C | -4.58
92 | C8G C62U U87A U112G G113U C123U G127A | -4.35
93 | C8U C72G G93A | -0.0349
94 | C8G C40A C53G G63U U109G | -7.06
95 | C8G C76U | -0.187
96 | C8G U38C G42A C56U C124A | -1.34

Row | Variant | polymerase ribozyme fitness (log ratio)
97 | C8U G51A | -1.3
98 | C8U C76A C79G C123G | 0.407
99 | C8G A18C G36U C72A U78G C82A C85G | -5.25
100 | C8G C11U | 1.67
101 | C8G G47C C82U | -1.06
102 | C8U G113A A121G | -0.604
103 | C8G G52U C73A U92G | -2.91
104 | C8G G107U C123G | -2.76
105 | C8G U59G C82U C85A U126C | -1.16
106 | C8G A50U C56A C79G A100G A111U | -5.8
107 | C8U G52C | -0.0551
108 | C8G C11A U96G C97G U131G | -5.45
109 | C8U G51A C64U C104G G120C | -6.76
110 | C8A U21G A50G C88A C124A | -0.0763
111 | C8U G127C | -1.53
112 | C8G C40G U81G C82U | -0.759
113 | C8U C53U C73U A105C U125G | -1.94
114 | C8U C12A G19U U59C A75U G120A | -1.37
115 | C8U A18U C53U C79G G93C U130G | -4.48
116 | C8U C73U U112A | 1.84
117 | C8A G120U | 0.91
118 | C8A G25U | -4.13
119 | C8G G39C C62A | -0.386
120 | C8U C40A | -1.07

Row | Variant | polymerase ribozyme fitness (log ratio)
121 | C8A G45C | 0.366
122 | C8U G44A U109A | -5.08
123 | C8G A16U A90U | -0.236
124 | C8U A27U C76G U96G | -3.38
125 | C8A U38G A43C G61C C123A | -4.73
126 | C8A G44U G57A C64U | -0.879
127 | C8U A95G C102U U106A | -3.3
128 | C8A U9G C62A | -0.773
129 | C8U U32A U96A A121C U130C | -3.85
130 | C8G U32C A90C | -0.367
131 | C8G G57A C73U U78A A91U | -1.7
132 | C8G U21A U54C C72A | 0.0731
133 | C8G C56G C89A A90C G107C G117C | -5.56
134 | C8U C40U G51C G120C | -1.98
135 | C8G C12A U109A A119C A121G | -5.47
136 | C8U G71A C115U | -1.94
137 | C8U G19C A43U C94A C115A G120U U133A | -2.68
138 | C8A U133G | 0.0303
139 | C8G C11G C56A C104A | -1.39
140 | C8G A103U | -3.34
141 | C8G C34U G39U G58A A84U | -5.29
142 | C8U G47C C62U | -1.51
143 | C8U C12U C101G A121C | -0.571
144 | C8G G10A C12U G35A A66C C72G A121U G122C U130C | -7.42

Row | Variant | polymerase ribozyme fitness (log ratio)
145 | C8U G42U | -0.81
146 | C8U C53U | 0.0512
147 | C8U G10U C72U | -0.279
148 | C8G C20U A68G G113C | -5.52
149 | C8U A74U C94A | -0.334
150 | C8G A41C G63U G113A A118G | -3.33
151 | C8A U129A | -0.0105
152 | C8U U9G G57A | -0.23
153 | C8G C102A | -1.02
154 | C8G C20U C89A A100U C102A | -5.22
155 | U9A A37C G63C | -0.708
156 | C8U C15U C72G G120U | 1.39
157 | C8U C73U G120A | 1.89
158 | C8U C73U U78C | 0.277
159 | C8G G44A C101U | -0.462
160 | C8A U9G U21G | -1.13
161 | C8G C79U G110C | -4.01
162 | C8G C40G U54C C99U C104U | -2.91
163 | C8G G117A | 0.795
164 | C8U G48C G69U | 0.0683
165 | C8A G47U C73G C82U | -1.82
166 | C8A G42U U96A A100U | -2.37
167 | C8U C62U | 0.699

From the RNAGym collection of RNA variant scans (doi:10.1073/pnas.2313332121)
